Patent US20100322948A1, “Bone morphogenetic protein (BMP)-binding domains of proteins of the repulsive guidance molecule (RGM) protein family and functional fragments thereof, and use of same” (ABBOTT GMBH & CO. KG, priority 2007, published 2010)
“Also recorded” adds a separate entry of the source.

Columns and labels:
[1] = tested on: SH-SY5Y cells; experiment: Neurite growth assay using SH-SY5Y cells (test method 1); format: cell-based, human; conditions: FIG. 7A
Source text: Test Method 1: Illustration of the Effect of RGM Peptides in the Neurite Growth Assay, Using SH-SY5Y Cells
SH-SY5Y cells are human neuroblastoma cells. Blastomas are embryonic tumors which originate during tissue and organ formation. The origin of the blastoma cells is frequently unknown, since in early embryonic states the differentiation of many cells is still premature; i.e., the blastoma cells are a heterogeneous cell population. The cells of a neuroblastoma, referred to as neuroblasts, originate from the neural crest (structure of the embryonic state) from the autonomous nerve tissue, and are practically arrested in an immature stage. The cells in the present case originated from a clonal subculture of the neuroepitheliomal cell line SK-N-SH which were isolated in 1970 in a bone marrow biopsy of a child with metastases of the neuroblastomas.
Culture Medium for SH-SY5Y Cells (ECACC No. 94030304)
The medium was sterile-filtered using a Nunc 500-mL filter, and was stored in a refrigerator at 4° C. until used. Before use, the medium was heated to 37° C. in a water bath.
SH-SY5Y cells are epithelial, neuron-like cells which slowly adherently grow in a monolayer and never attain a confluence of 100% (maximum 80%). The cell culture was split 1:3 two times per week. Isolation of the cells requires incubation with trypsin for 1-3 minutes in an incubator.
Since this is a population of still immature precursor cells, it is possible to differentiate the cells using retinoic acid, so that a certain percentage of the cells acquire neurite-like extensions. For this purpose the culture was incubated in the medium with 10 μM retinoic acid directly in the culture dish or flask, depending on the test, for 3 days.
Microtiter plates (96-well) (containing collagen I-coated plates) were additionally coated with the hRGM A fragments. After washing two times with PBS the cells were seeded. […] In the quantitative analysis the SH-SY5Y cells grown on hRGM A fragments were compared to SH-SY5Y grown on collagen I alone. The neurite length of the cells was automatically measured and used for the analysis. […]

[2] = tested on: NTera-2 cells; experiment: Neurite growth test using NTera-2 cells (test method 2); format: cell-based, human; conditions: FIG. 7B
Source text: Test Method 2: Illustration of the Effect of RGM Peptides in the Neurite Growth Test, Using NTera-2 Cells
The human pluripotent cancer cell line NTera2 (DSMZ ACC527) is established as a cell culture model. Neurites grow from cell aggregates and form a corona of neurites around the particular aggregate.
NTera-2 cells are human embryonic teratocarcinoma cells. A carcinoma is a cancerous tumor, whereas a teratoma or teratocarcinoma is a mixed tumor of the germ cells composed of various differentiated and undifferentiated tissues, and therefore, the same as for the SH-SY5Y culture, comprises a heterogeneous population. The tumor is usually present in an encapsulated form in the various types, such as hair, skin, teeth, muscle, and nerve tissue. The tumors typically originate in the ovaries, testes, abdominal cavity, or brain. The cell line was cloned from the Tera-2 line, obtained from a metastatic teratocarcinoma in a person.
NTera-2 cells are epithelial, adherently growing cells which form a monolayer. Due to the large number of granular particles which they contain, NTera-2 cells may be easily differentiated from the other cells. The cells were cultivated by 1:5 splitting twice a week. The cells of this mixed culture may be differentiated using retinoic acid in neuronal cells.
Culture Medium Fur Growth […]
In order to differentiate the cells it was necessary to introduce antibiotic into the culture medium of the cell line due to the fact that the cells remained in the same culture flask for three weeks. Previously, the undifferentiated culture had been detrypsinated and the cell count determined using a Neubauer counting chamber. […] 25 μL retinoic acid (10 μM) was readded to the medium under dim light conditions. […]
The culture was stored in an incubator at 37° C. with 5% CO2 gassing, and the medium was changed at the beginning and at the end of the week. […] After three weeks the cells were differentiated and were ready for use in experiments. […]
Different plate formats were used for the tests. For the isolation of protein, 6-well plates were necessary for recovering a sufficient quantity. […]

[3] = tested on: BMP signalling (rhBMP-2-induced luciferase activity); experiment: BRE-Luc assay on BMP signalling in BMP-responsive C3H10-B12 cells; format: cell-based
Experimental: Evaluation of the Agonistic or Antagonistic Effect of h RMG A on BMP Signalling using BRE-Luc Assay
a) Materials: • Three compounds were provided at 200 μg/ml.
fragment #788 (IgK/hRGM A 47-422/Xa cleavage site/Fc) • recombinant h BMP-2 (from CHO cells; #355-BM) and monoclonal anti-human BMP2/4 antibodies (#MAB3552) were obtained from R&D Systems Europe, Lille, France • Bright-Glo Luciferase assay kit were purchased from Promega
All experiments were performed in triplicate, and were repeated at two separate times.

B1: fragment #786: Fc fusion protein of human RGM A amino acids 47-168 (protein)
chain: PCKILKCNSEFWSATSGSHAPASDDTPEFCAALRSYALCTRRTARTCRGDLAYHSAVHGIEDLMSQHNCSKDGPTSQPRLRTLPPAGDSQERSDSPEICHYEKSFHKHSATPNYTHCGLFGD
modifications: left off: small tags and cut ends; a dimerising Fc or GST
In the case of B1, the “inhibition of neurite growth” value [1] is reported as “inhibit the neurite growth”, the “inhibitory activity in neurite growth test compared with 316-386-Fc” value ([1]; listed as 47-168-Fc) is reported as “much stronger effect; also recorded: significantly higher activity” and the “inhibition of neurite growth” value [2] is reported as “inhibit the neurite growth”. For the same molecule, the “inhibitory activity in neurite growth test compared with 316-386-Fc” value ([2]; listed as 47-168-Fc) was “much stronger effect; also recorded: significantly higher activity”, the “effect on BMP-2-induced luciferase activity” value ([3]; combined with rhBMP-2 at 50 ng/ml, 24 h, listed as #786) was “dose-dependent inhibition; also recorded: inhibited the rhBMP-2-induced activity in a dose dependent fashion” and the “inhibition of the rhBMP-2-induced activity” value ([3]; compounds at 10 μg/ml, rhBMP-2 at 50 ng/ml) was 88%. For the same molecule, the “equivalent dose for 50% of inhibition (ED50)” value ([3]; rhBMP-2 at 50 ng/ml) was 0.1 µg/mL.
